Data taken from US4497799A, “Polypeptide carcinostatic agent” (Suntory Ltd., priority 1981, dated 1985).
Bridges are numbered along the chain shown (N, C = ends). Where no end group is shown, it is not given here.

Tests used:
Format in all cases: in vivo
[1] = Acute toxicity in the mouse, Swiss Albino
Protocol: (§1) Animal: mouse (ICR, Swiss Albino and BDF1)
(§2) ICR (female, average body weight 25.0 g, age 5-6 weeks), Swiss Albino (female, average body weight 22.3 g, 5-6 weeks) and BDF1 (female, average body weight 21.5, 6 weeks) were divided into 6 groups consisting of 6 mice each, and predetermined amounts of SPH dissolved in 0.2 ml of physiological saline were administered intraperitoneally.

[2] = Acute toxicity in the mouse, ICR
Protocol: as §1, §2

[3] = Acute toxicity in the mouse, BDF1
Protocol: as §1, §2

[4] = Acute toxicity in the mouse, overall statement
Protocol: as §1, §2
Because the long term toxicity of SPH is low, the condition of the survival mice after recovery is similar to that of the control.

## KSCCRSTLGRNCYNLCRVRGAQKLCAGVCRCKLTSSGKCPTGFPK (disulfide 3-39, 4-31, 12-29, 16-25) [SPH]
[1]; 0.50 mg/Kg i.p.
  No. died (numerator): 0/6
[1]; 1.00 mg/Kg i.p.
  No. died (numerator): 1/6
[1]; 1.50 mg/Kg i.p.
  No. died (numerator): 4/6
[1]; 2.00 mg/Kg i.p.
  No. died (numerator): 6/6
[1]; i.p.
  LD50: 1.33 mg/kg
[2]; 0.68 mg/Kg i.p.
  No. died (numerator): 0/6
[2]; 1.36 mg/Kg i.p.
  No. died (numerator): 1/6
[2]; 2.04 mg/Kg i.p.
  No. died (numerator): 4/6
[2]; 2.72 mg/Kg i.p.
  No. died (numerator): 6/6
[2]; i.p.
  LD50: 1.81 mg/kg
[3]; 1.00 mg/Kg i.p.
  No. died (numerator): 0/6
[3]; 1.50 mg/Kg i.p.
  No. died (numerator): 2/6
[3]; 2.00 mg/Kg i.p.
  No. died (numerator): 6/6
[3]; 3.00 mg/Kg i.p.
  No. died (numerator): 6/6
[3]; i.p.
  LD50: 1.58 mg/kg
[4]; mouse, i.p., overall from Table 3
  LD50: about 1.5 mg/Kg
[4]; surviving mice after recovery similar to control
  long term toxicity: low
